# Experiments:
# Test in all cases: ELISA, lectin-captured E1E2 lysate, Ab 1 ug/ml;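 further: E1E2 captured on Galanthus nivalis lectin-coated plates, bound test antibody read out by an HRP-linked secondary antibody and TMB colour development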
# [1] = molecular target: E1E2 complex (H77) with E1 mutation N196A (HCV genotype 1a, isolate H77, UniProt P27958 192-383; P27958 384-746)
# [2] = molecular target: E1E2 complex (H77) with E1 mutation Q193A (HCV genotype 1a, isolate H77, UniProt P27958 192-383; P27958 384-746)
# [3] = molecular target: E1E2 complex (H77) with E1 mutation S327A (HCV genotype 1a, isolate H77, UniProt P27958 192-383; P27958 384-746)
# [4] = molecular target: E1E2 complex (H77) with E1 mutation M318A (HCV genotype 1a, isolate H77, UniProt P27958 192-383; P27958 384-746)
# [5] = molecular target: E1E2 complex (H77) with E1 mutation D321A (HCV genotype 1a, isolate H77, UniProt P27958 192-383; P27958 384-746)
# [6] = molecular target: E1E2 complex (H77) with E1 mutation R195A (HCV genotype 1a, isolate H77, UniProt P27958 192-383; P27958 384-746)
# [7] = molecular target: E1E2 complex (H77) with E1 mutation H261A (HCV genotype 1a, isolate H77, UniProt P27958 192-383; P27958 384-746)
# [8] = molecular target: E1E2 complex (H77) with E1 mutation V246A (HCV genotype 1a, isolate H77, UniProt P27958 192-383; P27958 384-746)
# [9] = molecular target: E1E2 complex (H77) with E1 mutation H298A (HCV genotype 1a, isolate H77, UniProt P27958 192-383; P27958 384-746)
# [10] = molecular target: E1E2 complex (H77) with E1 mutation T204A (HCV genotype 1a, isolate H77, UniProt P27958 192-383; P27958 384-746)
# [11] = molecular target: E1E2 complex (H77) with E1 mutation W239A (HCV genotype 1a, isolate H77, UniProt P27958 192-383; P27958 384-746)
# [12] = molecular target: E1E2 complex (H77) with E1 mutation V227A (HCV genotype 1a, isolate H77, UniProt P27958 192-383; P27958 384-746)
# [13] = molecular target: E1E2 complex (H77) with E1 mutation T255A (HCV genotype 1a, isolate H77, UniProt P27958 192-383; P27958 384-746)
# [14] = molecular target: E1E2 complex (H77) with E1 mutation R339A (HCV genotype 1a, isolate H77, UniProt P27958 192-383; P27958 384-746)
# [15] = molecular target: E1E2 complex (H77) with E1 mutation I212A (HCV genotype 1a, isolate H77, UniProt P27958 192-383; P27958 384-746)
# [16] = molecular target: E1E2 complex (H77) with E1 mutation W353A (HCV genotype 1a, isolate H77, UniProt P27958 192-383; P27958 384-746)
# [17] = molecular target: E1E2 complex (H77) with E1 mutation R259A (HCV genotype 1a, isolate H77, UniProt P27958 192-383; P27958 384-746)
# [18] = molecular target: E1E2 complex (H77) with E1 mutation H316A (HCV genotype 1a, isolate H77, UniProt P27958 192-383; P27958 384-746)
# [19] = molecular target: E1E2 complex (H77) with E1 mutation N305A/N234A (HCV genotype 1a, isolate H77, UniProt P27958 192-383; P27958 384-746)
# [20] = molecular target: E1E2 complex (H77) with E1 mutation G282A (HCV genotype 1a, isolate H77, UniProt P27958 192-383; P27958 384-746)
# [21] = molecular target: E1E2 complex (H77) with E1 mutation N209A (HCV genotype 1a, isolate H77, UniProt P27958 192-383; P27958 384-746)
# [22] = molecular target: E1E2 complex (H77) with E1 mutation F293A (HCV genotype 1a, isolate H77, UniProt P27958 192-383; P27958 384-746)
binder,measurement,setting,value
"N4 IgG (antibody, V domains shown, also called IgG N4) VH: VQLLEQSGPEVKKPGDSLRISCKMSGDSLVTTWIGWVRQKPGQGLEWMGIINPGDSSTNIYPGDSATRYGPSFQGQVTISIDKSTSTAYLQWNNVKASDTGIYYCARHVPVPISGTFLWREREMHDFGYFDDWGQGTLVIVSS VL: ELTLTQSPGTLSLSPGERATLSCRASQSVSNNYLAWYQQKPGQAPRLLIYGASSRATGIPDRFSGSGSGTGFTLIISRLEPEDFAVYYCQQYGSSSITFGQGTRLEIKR",Binding relative to wt (%),[1],52%
same,Binding relative to wt (%),[2],117%
same,Binding relative to wt (%),[3],69%
same,Binding relative to wt (%),[4],92%
same,Binding relative to wt (%),[5],92%
same,Binding relative to wt (%),[6],121%
same,Binding relative to wt (%),[7],106%
same,Binding relative to wt (%),[8],97%
same,Binding relative to wt (%),[9],62%
same,Binding relative to wt (%),[10],24%
same,Binding relative to wt (%),[11],67%
same,Binding relative to wt (%),[12],98%
same,Binding relative to wt (%),[13],96%
same,Binding relative to wt (%),[14],119%
same,Binding relative to wt (%),[15],51%
same,Binding relative to wt (%),[16],70%
same,Binding relative to wt (%),[17],102%
same,Binding relative to wt (%),[18],70%
same,Binding relative to wt (%),[19],30%
same,Binding relative to wt (%),[20],128%
same,Binding relative to wt (%),[21],117%
same,Binding relative to wt (%),[22],95%
